Results: article PMC6760278

Biological target: T1, OsNPPR1-repeat-MBP (Oryza sativa (rice), UniProt Q6Z2B6 182-806)
T1 sequence: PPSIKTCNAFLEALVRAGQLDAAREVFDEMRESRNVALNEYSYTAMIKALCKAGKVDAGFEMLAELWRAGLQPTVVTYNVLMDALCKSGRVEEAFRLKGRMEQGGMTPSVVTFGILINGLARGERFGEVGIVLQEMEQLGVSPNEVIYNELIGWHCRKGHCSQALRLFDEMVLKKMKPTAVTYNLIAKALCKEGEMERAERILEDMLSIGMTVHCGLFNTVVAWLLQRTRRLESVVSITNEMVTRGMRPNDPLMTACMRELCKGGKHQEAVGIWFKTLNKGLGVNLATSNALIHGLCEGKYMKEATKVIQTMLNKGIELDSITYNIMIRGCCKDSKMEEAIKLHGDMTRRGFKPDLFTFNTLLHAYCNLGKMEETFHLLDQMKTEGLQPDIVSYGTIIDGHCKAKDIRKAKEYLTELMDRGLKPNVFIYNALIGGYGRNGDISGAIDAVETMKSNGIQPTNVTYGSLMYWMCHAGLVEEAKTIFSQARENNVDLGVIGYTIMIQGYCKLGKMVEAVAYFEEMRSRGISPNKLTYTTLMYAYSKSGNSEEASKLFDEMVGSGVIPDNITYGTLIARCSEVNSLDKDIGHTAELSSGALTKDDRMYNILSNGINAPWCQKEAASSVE
Assay: EMSA

## CUCACCUCACCUCACCUCACCUCACCUCAC (ssRNA) [CUCAC probe]
  binding result: binds
